This note sets out measurements from patent KR20200144536A (dated 2020).

One may read the Kd as the free concentration of one partner at which half of the binding sites on the other are occupied at equilibrium, for simple one-to-one binding. High values mean a looser complex, low ones a tighter complex.

One assay addresses T1, hTie2-Fc (R&D Systems) (human, UniProt Q02763 23-745).
T1 construct: Bought fusion protein; neither the Tie2 range nor the linker is stated; also called hTie-2/Fc 융합 단백질; not shown: Fc of human IgG1
Nature of the assay: Complex ELISA: coated Tie2-Fc (4 ug/ml), 0.25 ug/ml Ang2 and 2 ug/ml 10D6, anti-mouse IgG-HRP, OD450. A general note: In an ELISA, binding on a coated surface is turned into a signal by an enzyme label.

The target in assay [1] is T2, 재조합 hAng-2 (C-His, R&D Systems) (human, UniProt O15123 19-496).
T2 construct: Bought protein; also called 인간 Ang-2 단백질; not shown: C-terminal His tag
T2 sequence: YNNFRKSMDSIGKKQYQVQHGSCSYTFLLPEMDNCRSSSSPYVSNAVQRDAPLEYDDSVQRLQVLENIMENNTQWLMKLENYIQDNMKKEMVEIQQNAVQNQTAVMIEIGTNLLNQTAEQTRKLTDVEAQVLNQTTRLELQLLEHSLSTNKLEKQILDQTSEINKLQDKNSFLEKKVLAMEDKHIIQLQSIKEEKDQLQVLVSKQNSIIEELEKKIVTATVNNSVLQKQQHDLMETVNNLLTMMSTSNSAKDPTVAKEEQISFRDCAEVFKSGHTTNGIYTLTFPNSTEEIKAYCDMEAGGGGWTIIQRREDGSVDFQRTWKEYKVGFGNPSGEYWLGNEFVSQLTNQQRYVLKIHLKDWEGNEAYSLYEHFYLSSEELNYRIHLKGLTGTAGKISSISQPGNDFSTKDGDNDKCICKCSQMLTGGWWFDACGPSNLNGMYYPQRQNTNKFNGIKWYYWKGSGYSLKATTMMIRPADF
Nature of the assay: SPR, BIAcore T100; hAng-2 (C-His) captured on an anti-His CM5 chip, antibody flowed from 100 nM in 2-fold dilutions. On the technique in general: SPR reads the build-up and loss of mass on a sensor chip optically.

Assay [2] deals with Mutant Ang2 F469 (알라닌 치환), FLAG-tagged (human) (UniProt O15123). Nature of the assay: ELISA, coated antibody (1000 nM), 250 ng FLAG-tagged mutant Ang2, anti-FLAG-HRP, OD450.
Assay [3] deals with Mutant Ang2 S417 (알라닌 치환), FLAG-tagged (human) (UniProt O15123). The description is as above.
Assay [4] deals with Mutant Ang2 I434 (알라닌 치환), FLAG-tagged (human) (UniProt O15123). The description is as above.
Assay [5] concerns the target Mutant Ang2 N467 (알라닌 치환), FLAG-tagged (human) (UniProt O15123). The assay is described as above.
The target in assay [6] is Mutant Ang2 P452 (알라닌 치환), FLAG-tagged (human) (UniProt O15123). The assay is described as above.
The target in assay [7] is Mutant Ang2 Y460 (알라닌 치환), FLAG-tagged (human) (UniProt O15123). The description is as above.
Assay [8] deals with Mutant Ang2 P419 (알라닌 치환), FLAG-tagged (human) (UniProt O15123). The assay is described as above.
Assay [9] addresses Mutant Ang2 K468 (알라닌 치환), FLAG-tagged (human) (UniProt O15123). Described as above.
Assay [10] concerns the target Mutant Ang2 Q418 (알라닌 치환), FLAG-tagged (human) (UniProt O15123). The description is as above.
The target in assay [11] is Mutant Ang2 A449 (알라닌 치환), FLAG-tagged (human) (UniProt O15123). The description is as above.
For assay [12], the target named is Mutant Ang2 N421 (알라닌 치환), FLAG-tagged (human) (UniProt O15123). The assay is described as above.
For assay [13], the target named is Mutant Ang2 D448 (알라닌 치환), FLAG-tagged (human) (UniProt O15123). Described as above.

T1 sequence (Q02763 23-745 limits assumed): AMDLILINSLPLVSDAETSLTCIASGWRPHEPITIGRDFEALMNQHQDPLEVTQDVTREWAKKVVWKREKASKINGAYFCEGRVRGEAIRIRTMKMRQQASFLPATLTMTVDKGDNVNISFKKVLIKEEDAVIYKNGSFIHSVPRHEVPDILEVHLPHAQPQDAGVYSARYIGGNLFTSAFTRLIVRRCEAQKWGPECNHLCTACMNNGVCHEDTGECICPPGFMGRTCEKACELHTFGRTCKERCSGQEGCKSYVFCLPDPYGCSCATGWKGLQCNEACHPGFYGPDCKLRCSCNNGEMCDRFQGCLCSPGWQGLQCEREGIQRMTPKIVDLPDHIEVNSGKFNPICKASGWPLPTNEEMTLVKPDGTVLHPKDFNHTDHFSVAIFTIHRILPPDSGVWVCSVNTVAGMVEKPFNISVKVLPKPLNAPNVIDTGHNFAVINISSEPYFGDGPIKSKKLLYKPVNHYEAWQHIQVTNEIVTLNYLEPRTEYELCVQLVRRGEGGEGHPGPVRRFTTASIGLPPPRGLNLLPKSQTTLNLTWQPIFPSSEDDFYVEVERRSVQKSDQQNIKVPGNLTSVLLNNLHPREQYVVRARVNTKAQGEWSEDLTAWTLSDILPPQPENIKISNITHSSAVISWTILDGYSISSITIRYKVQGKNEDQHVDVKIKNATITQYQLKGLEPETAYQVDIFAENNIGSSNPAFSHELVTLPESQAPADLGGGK

B1: Ang2 단백질(R&D systems) (ligand)
chain: T2 sequence
Consider B1, for which the binding result with hTie2-Fc (R&D Systems) is given as “binds”.

B2: SAIT-ANG2-AB-m10D6 (antibody, V domains shown)
VH: DVQLQESGPGLVKPSQSLSLTCTVTGYSITSDYAWNWIRQFPGNKLEWMGYINYSGNTDYNPSLKSRSSITRDTSKNQFFLQLNSVTTGDTATYYCARGNFEGAMDYWGQGTSVTVSS
VL: SIVMTQTPKFLLVSAGDRVTITCKASQSVSNDVAWYQQKPGQSPKLLIYYASNRYPGVPDRFTGSGYGTDFTFTISTVQAEDLAVYFCQQDYSSPWTFGGGTKLEIK
notes: Mouse monoclonal antibody from a hybridoma (KCLRF-BP-00295), purified on protein G; also called 10D6 항체; 10D6 anti-Ang2 항체
On to B2, for which binding in assay [1] was characterised by a dissociation constant (Kd) of 8 nM. Besides, the binding to Mutant Ang2 relative to native Ang2 (%) in assay [2] was 109%; in [3], 101%; in [4], 109%; in [5], 107%; in assay [6] it was 102%; in assay [7] it was 103%. For the same molecule, the binding to Mutant Ang2 relative to native Ang2 (%) stood at 41.1% in [8]; 110% in [9]; 38.9% in assay [10]; 97.9% in [11]; 109% in assay [12]; 105% in assay [13].
